Drawing on PMC3554717, this text covers response (arbitrary units) for one substance.

The target in this assay is endogenous CSK (Jurkat) (UniProt P41240). The assay can be described thus: GST pull-down, CSK immunoblot densitometry. The note with it: Jurkat cell lysates (3×10^8 cells divided into five tubes); GST alone lane 0.00; parent: 84.98. (Immunoblotting shows a protein as a band on a membrane.)
Chain of endogenous CSK (Jurkat) (P41240 whole entry): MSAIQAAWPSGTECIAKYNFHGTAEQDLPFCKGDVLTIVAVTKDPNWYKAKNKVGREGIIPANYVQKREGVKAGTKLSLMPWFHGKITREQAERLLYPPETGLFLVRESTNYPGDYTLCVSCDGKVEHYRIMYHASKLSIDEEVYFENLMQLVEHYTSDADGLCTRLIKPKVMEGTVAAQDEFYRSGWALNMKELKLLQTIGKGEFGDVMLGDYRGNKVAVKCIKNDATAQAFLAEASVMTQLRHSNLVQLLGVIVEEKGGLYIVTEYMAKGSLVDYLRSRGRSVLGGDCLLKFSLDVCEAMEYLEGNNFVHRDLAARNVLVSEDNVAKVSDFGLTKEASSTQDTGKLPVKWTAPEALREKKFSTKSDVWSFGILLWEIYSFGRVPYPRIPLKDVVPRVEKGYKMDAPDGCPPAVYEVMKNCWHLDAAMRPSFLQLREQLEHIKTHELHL

As to “LYP P1 motif (Arg620) fused to GST R620W”, the response (arbitrary units) was -0.
